{"source": "paper PMC12543377", "about": "“https://orcid.org/0000-0003-0166-1786 Gustavsson Emil Data curation Formal analysis Investigation Methodology Project administration Validation Visualization Writing - original draft Writing - review”", "key": {"[1]": {"molecular_target": "T1, OBP (UL9 origin-binding protein), dimer-dimer assembly (Herpes simplex virus 1, UniProt D3YPE9 1-851)", "assay": "cryo-EM (2D classes); two dimers, each apparently on two antiparallel OriS helices (Box 1 and Box 2); low frequency; 20 mM HEPES pH 7.8, 150 mM NaCl, 5 mM MgCl2, 2 mM DTT, 5% glycerol; 2 uM OBP, protein:DNA 1:1.2, 37 C 30 min, then vitrified", "settings": "protein: recombinant; (StrepTrap purification; tag not described); chain copies: 4"}, "[2]": {"molecular_target": "T2, OBP (UL9 origin-binding protein), dimer (Herpes simplex virus 1, UniProt D3YPE9 1-851)", "assay": "cryo-EM; ATPgS, Mg2+; one dimer at Box 1; 20 mM HEPES pH 7.8, 150 mM NaCl, 5 mM MgCl2, 2 mM DTT, 5% glycerol; 2 uM OBP, protein:DNA 1:1.2, 37 C 30 min, then vitrified", "settings": "protein: recombinant; (StrepTrap purification; tag not described); chain copies: 2"}, "[3]": {"molecular_target": "the molecule itself", "assay": "cryo-EM structure; OBP + mini-OriS*, dimer-dimer assembly dataset; same reconstitution; lower resolution; dimers to dimer-dimer assembly"}, "[4]": {"molecular_target": "OBP (UL9 origin-binding protein), monomer (Herpes simplex virus 1, UniProt D3YPE9 1-851)", "assay": "cryo-EM; monomer; preferred orientation, DNA path needs validation; 20 mM HEPES pH 7.8, 150 mM NaCl, 5 mM MgCl2, 2 mM DTT, 5% glycerol; 2 uM OBP, protein:DNA 1:1.2, 37 C 30 min, then vitrified", "settings": "protein: recombinant; (StrepTrap purification; tag not described); hairpin with 3' single-stranded tail"}, "[5]": {"molecular_target": "T1, OBP (UL9 origin-binding protein), …", "assay": "cryo-EM; two dimers with putatively two mini-OriS* copies; 20 mM HEPES pH 7.8, 150 mM NaCl, 5 mM MgCl2, 2 mM DTT, 5% glycerol; 2 uM OBP, protein:DNA 1:1.2, 37 C 30 min, then vitrified", "settings": "protein: recombinant; (StrepTrap purification; tag not described); chain copies: 4; hairpin with 3' single-stranded tail"}, "[6]": {"molecular_target": "T2, OBP (UL9 origin-binding protein), dimer", "assay": "cryo-EM; no nucleotide; 5 mM MgCl2; one dimer at Box 1; 20 mM HEPES pH 7.8, 150 mM NaCl, 5 mM MgCl2, 2 mM DTT, 5% glycerol; 2 uM OBP, protein:DNA 1:1.2, 37 C 30 min, then vitrified", "settings": "protein: recombinant; (StrepTrap purification; tag not described); chain copies: 2"}}}
{"binder": "OriS (dsDNA) DNA 1: AAAAGAAGTGAGAACGCGAAGCGTTCGCACTTCGTCCCAATATATATATATTATTAGGGCGAAGTGCGAGCACTGGCGCC DNA 2: GGCGCCAGTGCTCGCACTTCGCCCTAATAATATATATATATTGGGACGAAGTGCGAACGCTTCGCGTTCTCACTTCTTTT", "values": [{"measurement": "binding result", "setting": "[1]", "value": "binds"}, {"measurement": "binding result", "setting": "[2]", "value": "binds"}]}
{"binder": "HSV-1 origin-binding protein (OBP), encoded by the UL9 gene (enzyme, No viral strain is named; Tag removal is not mentioned; also called monomer A; monomer B; source: ExpiSf9 cells (recombinant baculovirus), purified (StrepTrap HP, eluted with desthiobiotin)) MPFVGGAESGDPLGAGRPIGDDECEQYTSSVSLARMLYGGDLAEWVPRVHPKTTIERQQHGPVTFPNASAPTARCVTVVRAPMGSGKTTALIRWLREAIHSPDTSVLVVSCRRSFTQTLATRFAESGLVDFVTYFSSTNYIMNDRPFHRLIVQVESLHRVGPNLLNNYDVLVLDEVMSTLGQLYSPTMQQLGRVDALMLRLLRICPRIIAMDATANAQLVDFLCGLRGEKNVHVVVGEYAMPGFSARRCLFLPRLGTELLQAALRPPGPPSGPSPDASPEARGATFFGELEARLGGGDNICIFSSTVSFAEIVARFCRQFTDRVLLLHSLTPLGDVTTWGQYRVVIYTTVVTVGLSFDPLHFDGMFAYVKPMNYGPDMVSVYQSLGRVRTLRKGELLIYMDGSGARSEPVFTPMLLNHVVSSCGQWPAQFSQVTNLLCRRFKGRCDASACDTSLGRGSRIYNKFRYKHYFERCTLACLSDSLNILHMLLTLNCIRVRFWGHDDTLTPKDFCLFLRGVHFDALRAQRDLRELRCRDPEASLPAQAAETEEVGLFVEKYLRSDVAPAEIVALMRNLNSLMGRTRFIYLALLEACLRVPMATRSSAIFRRIYDHYATGVIPTINVTGELELVALPPTLNVTPVWELLCLCSTMAARLHWDSAAGGSGRTFGPDDVLDLLTPHYDRYMQLVFELGHCNVTDGLLLSEEAVKRVADALSGCPPRGSVSETDHAVALFKIIWGELFGVQMAKSTQTFPGAGRVKNLTKQTIVGLLDAHHIDHSACRTHRQLYALLMAHKREFAGARFKLRVPAWGRCLRTHSSSANPNADIILEAALSELPTEAWPMMQGAVNFSTL", "values": [{"measurement": "stoichiometry N", "setting": "[3]", "value": 4}]}
{"binder": "AAAAGAAGTGAGAACGCGAAGCGTTCGCACTTCGTTTTTTTTTT (structured_DNA)", "note": "[mini-OriS*]", "values": [{"measurement": "binding result", "setting": "[4]", "value": "binds"}, {"measurement": "binding result", "setting": "[5]", "value": "binds"}]}
{"binder": "OriS-6AT (dsDNA) DNA 1: AAAAGAAGTGAGAACGCGAAGCGTTCGCACTTCGTCCCAATATATTATTAGGGCGAAGTGCGAGCACTGGCGCC DNA 2: GGCGCCAGTGCTCGCACTTCGCCCTAATAATATATTGGGACGAAGTGCGAACGCTTCGCGTTCTCACTTCTTTT", "values": [{"measurement": "binding result", "setting": "[6]", "value": "binds"}]}
